Results: publication PMC12442453

Target: T1, human EPOR, endogenous on TF-1 cells (human (endogenous in TF-1)) (UniProt P19235)
T1 sequence: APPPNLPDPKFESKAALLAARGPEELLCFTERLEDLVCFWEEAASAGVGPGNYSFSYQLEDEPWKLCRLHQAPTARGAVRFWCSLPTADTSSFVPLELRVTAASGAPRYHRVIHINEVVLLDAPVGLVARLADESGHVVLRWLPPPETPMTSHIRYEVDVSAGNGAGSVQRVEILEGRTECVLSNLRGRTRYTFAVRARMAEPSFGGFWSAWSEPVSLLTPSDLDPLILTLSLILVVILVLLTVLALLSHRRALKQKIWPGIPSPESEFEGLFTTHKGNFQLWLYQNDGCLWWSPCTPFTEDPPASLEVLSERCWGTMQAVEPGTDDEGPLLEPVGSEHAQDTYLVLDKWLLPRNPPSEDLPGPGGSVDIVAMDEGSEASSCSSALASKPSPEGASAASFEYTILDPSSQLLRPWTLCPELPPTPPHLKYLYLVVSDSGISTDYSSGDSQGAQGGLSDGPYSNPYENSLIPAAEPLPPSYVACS

B1: Db-Fc 1.3 (Fc fusion)
VH: EVQLVESGGGLVQPGGSLRLSCAASGFNLRSYYMHWVRQAPGKGLEWVASISPHYGYTYYADSVKGRFTISADTSKNTAYLQMNSLRAEDTAVYYCARHGYSAMDYWGQGTLVTVSS
VL: DIQMTQSPSSLSASVGDRVTITCRASQSVSSAVAWYQQKPGKAPKLLIYSASSLYSGVPSRFSGSRSGTDFTLTISSLQPEDFATYYCQQSSDSLFTFGQGTKVEIK
UT-7/Epo cell proliferation, EC50; Tb-Fc2 fraction of variant 1.3 (putative tetramer): 2 nM
UT-7/Epo cell proliferation, maximum response; Tb-Fc2 fraction of variant 1.3 (putative tetramer): 2.2e+06 RLU
